Assay results as given in patent publication US20100093623A1, “COMPOSITIONS AND METHODS FOR […]-LIKE RECEPTOR ACTIVITY AND USES THEREOF” (Burnham Institute for Medical Research, priority 2008, published 2010).

Columns and labels:
[1] = molecular target: T1, (His)6-NLRP1 (NLR family, pyrin domain-containing 1), purified recombinant full-length protein from Sf21 cells (human) (UniProt Q9C000); assay: cell-based or functional assay
T1 sequence: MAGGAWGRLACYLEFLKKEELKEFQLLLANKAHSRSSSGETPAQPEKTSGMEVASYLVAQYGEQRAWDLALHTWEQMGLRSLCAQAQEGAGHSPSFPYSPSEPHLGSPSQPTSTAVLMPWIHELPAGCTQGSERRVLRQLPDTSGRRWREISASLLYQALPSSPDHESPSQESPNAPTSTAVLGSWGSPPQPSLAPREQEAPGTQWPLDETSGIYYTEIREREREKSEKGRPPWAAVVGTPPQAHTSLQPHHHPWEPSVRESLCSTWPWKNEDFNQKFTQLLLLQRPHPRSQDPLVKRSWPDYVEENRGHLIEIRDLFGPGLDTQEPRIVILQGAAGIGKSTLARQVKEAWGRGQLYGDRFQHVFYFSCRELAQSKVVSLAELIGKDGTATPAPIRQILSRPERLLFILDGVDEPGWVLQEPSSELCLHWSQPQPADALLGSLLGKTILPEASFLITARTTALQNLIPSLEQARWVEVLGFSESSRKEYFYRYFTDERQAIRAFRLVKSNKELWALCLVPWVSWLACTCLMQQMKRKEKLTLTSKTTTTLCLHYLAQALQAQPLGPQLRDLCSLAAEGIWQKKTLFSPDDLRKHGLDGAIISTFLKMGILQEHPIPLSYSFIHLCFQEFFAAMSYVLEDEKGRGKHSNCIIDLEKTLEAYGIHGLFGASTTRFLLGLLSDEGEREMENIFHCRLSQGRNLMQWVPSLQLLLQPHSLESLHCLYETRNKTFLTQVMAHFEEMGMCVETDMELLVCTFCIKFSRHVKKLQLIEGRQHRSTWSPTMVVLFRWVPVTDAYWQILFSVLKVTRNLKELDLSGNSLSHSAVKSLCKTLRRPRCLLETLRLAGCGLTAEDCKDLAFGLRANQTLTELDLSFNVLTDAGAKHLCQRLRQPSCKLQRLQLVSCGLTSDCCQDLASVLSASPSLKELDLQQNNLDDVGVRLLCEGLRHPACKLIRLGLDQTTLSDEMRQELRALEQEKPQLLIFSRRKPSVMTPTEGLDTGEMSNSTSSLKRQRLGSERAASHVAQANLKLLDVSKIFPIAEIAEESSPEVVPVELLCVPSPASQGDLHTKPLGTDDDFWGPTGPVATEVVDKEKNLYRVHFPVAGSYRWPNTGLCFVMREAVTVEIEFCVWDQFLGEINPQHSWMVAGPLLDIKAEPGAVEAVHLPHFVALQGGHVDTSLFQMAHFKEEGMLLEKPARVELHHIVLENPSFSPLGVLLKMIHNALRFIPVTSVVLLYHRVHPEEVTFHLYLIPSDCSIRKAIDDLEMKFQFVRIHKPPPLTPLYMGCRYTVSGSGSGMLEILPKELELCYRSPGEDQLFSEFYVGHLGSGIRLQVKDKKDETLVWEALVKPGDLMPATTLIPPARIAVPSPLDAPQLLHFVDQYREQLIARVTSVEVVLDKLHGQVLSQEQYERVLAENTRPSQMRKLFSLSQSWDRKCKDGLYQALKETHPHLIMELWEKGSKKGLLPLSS

[2] = molecular target: T1, (His)6-NLRP1 (NLR family, pyrin domain-containing 1), purified recombinant full-length protein from Sf21 cells (human); assay: enzyme kinetics of the reconstituted NLRP1 inflammasome (Caspase-1 activity on Ac-WEHD-AMC); Ki from the competitive inhibition equation

Row | Substance | IC50 (concentration to inhibit NLRP1-induced Caspase-1 activity by 50%) [1] [nM] | FITC-ATP binding to NLRP1 (FPA), reduction [1] [%] | Ki [2] [nM]
1 | Bcl-2 Loop peptide 35-83 (synthetic) | 11.4 |  | 
2 | GST-Bcl-2 (Bcl-2 lacking its C-terminal transmembrane domain, ~last 20 amino acids) (from UniProt P08515 1-218; P10415 1-218) |  | 60 | 8.23
